± gives the standard deviation of the averaged measurements.
Experiment: total protein half-life in vivo (active degradation + dilution); higher = more stable protein
[1] = E. coli NCM3722 delta-clpP delta-lon delta-hslV, growth: N-lim chemostat, doubling time 6 h
[2] = E. coli NCM3722 delta-hslV, growth: N-lim chemostat, doubling time 6 h
[3] = E. coli NCM3722 delta-lon, growth: N-lim chemostat, doubling time 6 h
[4] = E. coli NCM3722 delta-smpB, growth: N-lim chemostat, doubling time 6 h
[5] = wild type E. coli NCM3722, growth: C-lim chemostat, doubling time 3 h
[6] = wild type E. coli NCM3722, growth: C-lim chemostat, doubling time 6 h
[7] = wild type E. coli NCM3722, growth: C-lim chemostat, doubling time 12 h
[8] = wild type E. coli NCM3722, growth: N-lim chemostat, doubling time 6 h
[9] = wild type E. coli NCM3722, growth: N-lim chemostat, doubling time 12 h
[10] = wild type E. coli NCM3722, growth: P-lim chemostat, doubling time 6 h
[11] = wild type E. coli NCM3722, growth: P-lim chemostat, doubling time 12 h
[12] = E. coli NCM3722 delta-clpP, growth: N-lim chemostat, doubling time 6 h

Sequence	total protein half-life in vivo [1] [h]	total protein half-life in vivo [2] [h]	total protein half-life in vivo [3] [h]	total protein half-life in vivo [4] [h]	total protein half-life in vivo [5] [h]	total protein half-life in vivo [6] [h]	total protein half-life in vivo [7] [h]	total protein half-life in vivo [8] [h]	total protein half-life in vivo [9] [h]	total protein half-life in vivo [10] [h]	total protein half-life in vivo [11] [h]	total protein half-life in vivo [12] [h]
MSTLRLLISDSYDPWFNLAVEECIFRQMPATQRVLFLWRNADTVVIGRAQNPWKECNTRRMEEDNVRLARRSSGGGAVFHDLGNTCFTFMAGKPEYDKTISTSIVLNALNALGVSAEASGRNDLVVKTVEGDRKVSGSAYRETKDRGFHHGTLLLNADLSRLANYLNPDKKKLAAKGITSVRSRVTNLTELLPGITHEQVCEAITEAFFAHYGERVEAEIISPNKTPDLPNFAETFARQSSWEWNFGQAPAFSHLLDERFTWGGVELHFDVEKGHITRAQVFTDSLNPAPLEALAGRLQGCLYRADMLQQECEALLVDFPEQEKELRELSAWMAGAVR	4.61 ± 0.64	4.05 ± 0.39	5.74 ± 1.3	4.227 ± 0.0072	2.93 ± 0.24	5.88 ± 0.59	11 ± 0.56	4.8 ± 0.4	7.13 ± 0.78	5.78 ± 0.2	11.9 ± 0.67	–
MTGQSSSQAATPIQWWKPALFFLVVIAGLWYVKWEPYYGKAFTAAETHSIGKSILAQADANPWQAALDYAMIYFLAVWKAAVLGVILGSLIQVLIPRDWLLRTLGQSRFRGTLLGTLFSLPGMMCTCCAAPVAAGMRRQQVSMGGALAFWMGNPVLNPATLVFMGFVLGWGFAAIRLVAGLVMVLLIATLVQKWVRETPQTQAPVEIDIPEAQGGFFSRWGRALWTLFWSTIPVYILAVLVLGAARVWLFPHADGAVDNSLMWVVAMAVAGCLFVIPTAAEIPIVQTMMLAGMGTAPALALLMTLPAVSLPSLIMLRKAFPAKALWLTGAMVAVSGVIVGGLALLF	–	–	–	4.43 ± 0.43	–	–	–	–	5.72	–	–	–
MDMDLNNRLTEDETLEQAYDIFLELAADNLDPADVLLFNLQFEERGGAELFDPAEDWQEHVDFDLNPDFFAEVVIGLADSEDGEINDVFARILLCREKDHKLCHIIWRE [P0A8L7]	5.64 ± 0.096	3.78	5.055 ± 0.0098	3.64	2.74 ± 0.24	5.72 ± 0.71	8.89	3.83	7.29 ± 0.12	> 8	11.2 ± 3.8	4.35 ± 0.49
MTEPHVAVLSQVQQFLDRQHGLYIDGRPGPAQSEKRLAIFDPATGQEIASTADANEADVDNAVMSAWRAFVSRRWAGRLPAERERILLRFADLVEQHSEELAQLETLEQGKSIAISRAFEVGCTLNWMRYTAGLTTKIAGKTLDLSIPLPQGARYQAWTRKEPVGVVAGIVPWNFPLMIGMWKVMPALAAGCSIVIKPSETTPLTMLRVAELASEAGIPDGVFNVVTGSGAVCGAALTSHPHVAKISFTGSTATGKGIARTAADHLTRVTLELGGKNPAIVLKDADPQWVIEGLMTGSFLNQGQVCAASSRIYIEAPLFDTLVSGFEQAVKSLQVGPGMSPVAQINPLVSRAHCDKVCSFLDDAQAQQAELIRGSNGPAGEGYYVAPTLVVNPDAKLRLTREEVFGPVVNLVRVADGEEALQLANDTEYGLTASVWTQNLSQALEYSDRLQAGTVWVNSHTLIDANLPFGGMKQSGTGRDFGPDWLDGWCETKSVCVRY	4.33	–	–	–	3.12 ± 0.38	5.23 ± 0.96	8.67 ± 0.33	–	–	5.34 ± 0.17	10.3 ± 0.53	–
MKQQIQLRRREVDETADLPAELPPLLRRLYASRGVRSAQELERSVKGMLPWQQLSGVEKAVEILYNAFREGTRIIVVGDFDADGATSTALSVLAMRSLGCSNIDYLVPNRFEDGYGLSPEVVDQAHARGAQLIVTVDNGISSHAGVEHARSLGIPVIVTDHHLPGDTLPAAEAIINPNLRDCNFPSKSLAGVGVAFYLMLALRTFLRDQGWFDERNIAIPNLAELLDLVALGTVADVVPLDANNRILTWQGMSRIRAGKCRPGIKALLEVANRDAQKLAASDLGFALGPRLNAAGRLDDMSVGVALLLCDNIGEARVLANELDALNQTRKEIEQGMQIEALTLCEKLERSRDTLPGGLAMYHPEWHQGVVGILASRIKERFHRPVIAFAPAGDGTLKGSGRSIQGLHMRDALERLDTLYPGMMLKFGGHAMAAGLSLEEDKFKLFQQRFGELVTEWLDPSLLQGEVVSDGPLSPAEMTMEVAQLLRDAGPWGQMFPEPLFDGHFRLLQQRLVGERHLKVMVEPVGGGPLLDGIAFNVDTALWPDNGVREVQLAYKLDINEFRGNRSLQIIIDNIWPI	4.22 ± 0.25	2.23 ± 0.075	2.74 ± 0.093	2.07 ± 0.028	2.11 ± 0.042	3.66 ± 0.65	4.42 ± 0.24	2.25 ± 0.044	3.5 ± 0.59	2.33 ± 0.37	3.89 ± 0.38	3.87 ± 1.1
MLKTIQDKARHRTRPLWAWLKLLWQRIDEDNMTTLAGNLAYVSLLSLVPLVAVVFALFAAFPMFSDVSIQLRHFIFANFLPATGDVIQRYIEQFVANSNKMTAVGACGLIVTALLLMYSIDSALNTIWRSKRARPKIYSFAVYWMILTLGPLLAGASLAISSYLLSLRWASDLNTVIDNVLRIFPLLLSWISFWLLYSIVPTIRVPNRDAIVGAFVAALLFEAGKKGFALYITMFPSYQLIYGVLAVIPILFVWVYWTWCIVLLGAEITVTLGEYRKLKQAAEQEEDDEP [P0A8K8]	–	–	–	4.46	> 4	–	–	7.67	–	–	> 16	–
MILTDPEWQAVLLSLKVSSLAVLFSLPFGIFFAWLLVRCTFPGKALLDSVLHLPLVLPPVVVGYLLLVSMGRRGFIGERLYDWFGITFAFSWRGAVLAAAVMSFPLMVRAIRLALEGVDVKLEQAARTLGAGRWRVFFTITLPLTLPGIIVGTVLAFARSLGEFGATITFVSNIPGETRTIPSAMYTLIQTPGGESGAARLCIISIALAMISLLISEWLARISRERAGR [P0AF01]	4.97	–	–	–	3.03	4.97	9.85	5.21	9.16	–	–	6.15
MSNKPFHYQAPFPLKKDDTEYYLLTSEHVSVSEFEGQEILKVAPEALTLLARQAFHDASFMLRPAHQQQVADILRDPEASENDKYVALQFLRNSDIAAKGVLPTCQDTGTAIIVGKKGQRVWTGGGDEAALARGVYNTYIEDNLRYSQNAPLDMYKEVNTGTNLPAQIDLYAVDGDEYKFLCIAKGGGSANKTYLYQETKALLTPGKLKNYLVEKMRTLGTAACPPYHIAFVIGGTSAETNLKTVKLASAKYYDELPTEGNEHGQAFRDVELEKELLIEAQNLGLGAQFGGKYFAHDIRVIRLPRHGASCPVGMGVSCSADRNIKAKINRQGIWIEKLEHNPGKYIPEELRKAGEGEAVRVDLNRPMKEILAQLSQYPVSTRLSLNGTIIVGRDIAHAKLKERMDNGEGLPQYIKDHPIYYAGPAKTPEGYASGSLGPTTAGRMDSYVDQLQAQGGSMIMLAKGNRSQQVTDACKKHGGFYLGSIGGPAAVLAQGSIKSLECVEYPELGMEAIWKIEVEDFPAFILVDDKGNDFFQQIQLTQCTRCVK [P0AC33]	4.02 ± 1.1	2.53 ± 0.47	2.86 ± 0.043	2.36 ± 0.071	3.13 ± 0.2	4.39 ± 0.14	7.67 ± 1.4	2.51 ± 0.22	3.37 ± 0.11	5.02 ± 0.12	8.932 ± 0.051	2.82 ± 0.17
MILIIYAHPYPHHSHANKRMLEQARTLEGVEIRSLYQLYPDFNIDIAAEQEALSRADLIVWQHPMQWYSIPPLLKLWIDKVFSHGWAYGHGGTALHGKHLLWAVTTGGGESHFEIGAHPGFDVLSQPLQATAIYCGLNWLPPFAMHCTFICDDETLEGQARHYKQRLLEWQEAHHG [P0A754]	–	5.27	6.37	6.82	–	4.93	10.9 ± 0.14	–	10.5 ± 2.2	6.43 ± 0.21	10.3 ± 1.5	6.16
MIVRPQQHWLRRIFVWHGSVLSKISSRLLLNFLFSIAVIFMLPWYTHLGIKFTLAPFSILGVAIAIFLGFRNNAGYARYVEARKLWGQLMIASRSLLREVKTTLPDSASVREFARLQIAFAHCLRMTLRKQPQAEVLAHYLKTEDLQRVLASNSPANRILLIMGEWLAVQRRNGQLSDILFISLNDRLNDISAVLAGCERIAYTPIPFAYTLILHRTVYLFCIMLPFALVVDLHYMTPFISVLISYTFISLDCLAEELEDPFGTENNDLPLDAICNAIEIDLLQMNDEAEIPAKILPDRHYQLT	6.05	5.52	–	–	–	–	–	3.6	8.65	5.86 ± 0.6	11.5 ± 0.23	5.43
MKAVSRVHITPHMHWDREWYFTTEESRILLVNNMEEILCRLEQDNEYKYYVLDGQTAILEDYFAVKPENKDRVKKQVEAGKLIIGPWYTQTDTTIVSAESIVRNLMYGMRDCLAFGEPMKIGYLPDSFGMSGQLPHIYNGFGITRTMFWRGCSERHGTDKTEFLWQSSDGSEVTAQVLPLGYAIGKYLPADENGLRKRLDSYFDVLEKASVTKEILLPNGHDQMPLQQNIFEVMDKLREIYPQRKFVMSRFEEVFEKIEAQRDNLATLKGEFIDGKYMRVHRTIGSTRMDIKIAHARIENKIVNLLEPLATLAWTLGFEYHHGLLEKMWKEILKNHAHDSIGCCCSDKVHREIVARFELAEDMADNLIRFYMRKIADNMPQSDADKLVLFNLMPWPREEVINTTVRLRASQFNLRDDRGQPVPYFIRHAREIDPGLIDRQIVHYGNYDPFMEFDIQINQIVPSMGYRTLYIEANQPGNVIAAKSDAEGILENAFWQIALNEDGSLQLVDKDSGVRYDRVLQIEESSDDGDEYDYSPAKEEWVITAANAKPQCDIIHEAWQSRAVIRYDMAVPLNLSERSARQSTGRVGVVLVVTLSHNSRRIDVDINLDNQADDHRLRVLVPTPFNTDSVLADTQFGSLTRPVNDSAMNNWQQEGWKEAPVPVWNMLNYVALQEGRNGMAVFSEGLREFEVIGEEKKTFAITLLRGVGLLGKEDLLLRPGRPSGIKMPVPDSQLRGLLSCRLSLLSYTGTPTAAGVAQQARAWLTPVQCYNKIPWDVMKLNKAGFNVPESYSLLKMPPVGCLISALKKAEDRQEVILRLFNPAESATCDATVAFSREVISCSETMMDEHITTEENQGSNLSGPFLPGQSRTFSYRLA	6.07	–	–	1.754 ± 0.011	–	–	–	–	3.4	–	–	–
MSRLVVVSNRIAPPDEHAASAGGLAVGILGALKAAGGLWFGWSGETGNEDQPLKKVKKGNITWASFNLSEQDLDEYYNQFSNAVLWPAFHYRLDLVQFQRPAWDGYLRVNALLADKLLPLLQDDDIIWIHDYHLLPFAHELRKRGVNNRIGFFLHIPFPTPEIFNALPTYDTLLEQLCDYDLLGFQTENDRLAFLDCLSNLTRVTTRSAKSHTAWGKAFRTEVYPIGIEPKEIAKQAAGPLPPKLAQLKAELKNVQNIFSVERLDYSKGLPERFLAYEALLEKYPQHHGKIRYTQIAPTSRGDVQAYQDIRHQLENEAGRINGKYGQLGWTPLYYLNQHFDRKLLMKIFRYSDVGLVTPLRDGMNLVAKEYVAAQDPANPGVLVLSQFAGAANELTSALIVNPYDRDEVAAALDRALTMSLAERISRHAEMLDVIVKNDINHWQECFISDLKQIVPRSAESQQRDKVATFPKLA	5.02 ± 0.71	2.95 ± 0.046	3.23 ± 0.4	2.85 ± 0.093	2.4 ± 0.054	3.858 ± 0.033	6.061 ± 0.06	3.02 ± 0.29	4.47 ± 0.49	3.72 ± 0.24	6.83 ± 0.3	4.68 ± 0.38
MHSLQRKVLRTICPDQKGLIARITNICYKHELNIVQNNEFVDHRTGRFFMRTELEGIFNDSTLLADLDSALPEGSVRELNPAGRRRIVILVTKEAHCLGDLLMKANYGGLDVEIAAVIGNHDTLRSLVERFDIPFELVSHEGLTRNEHDQKMADAIDAYQPDYVVLAKYMRVLTPEFVARFPNKIINIHHSFLPAFIGARPYHQAYERGVKIIGATAHYVNDNLDEGPIIMQDVIHVDHTYTAEDMMRAGRDVEKNVLSRALYKVLAQRVFVYGNRTIIL	5.61 ± 0.48	4.71 ± 0.23	5.71 ± 1.4	4.94 ± 0.19	2.78 ± 0.4	6.27 ± 1.3	10.5 ± 0.78	4.8 ± 0.3	9.08 ± 0.9	5.77 ± 0.26	12.6 ± 0.46	5.19 ± 0.2

From the supplement of paper PMC11246515
